Molecular target: 2xMyc‐PAK6 (p21‐activated kinase 6) (human) (UniProt Q9NQU5)
Experiment: co-IP; lysates of HEK293T cells co-transfected with Flag-LRRK2 and Myc-PAK6 or Myc-14-3-3; immunoprecipitation with anti-Flag or with anti-Myc; washes in lysis buffer (50 mM Tris pH 7.5, 1% Triton X-100) with 0.25 M NaCl; immunoblot

Chain of UniProt Q9NQU5 (Q9NQU5 whole entry): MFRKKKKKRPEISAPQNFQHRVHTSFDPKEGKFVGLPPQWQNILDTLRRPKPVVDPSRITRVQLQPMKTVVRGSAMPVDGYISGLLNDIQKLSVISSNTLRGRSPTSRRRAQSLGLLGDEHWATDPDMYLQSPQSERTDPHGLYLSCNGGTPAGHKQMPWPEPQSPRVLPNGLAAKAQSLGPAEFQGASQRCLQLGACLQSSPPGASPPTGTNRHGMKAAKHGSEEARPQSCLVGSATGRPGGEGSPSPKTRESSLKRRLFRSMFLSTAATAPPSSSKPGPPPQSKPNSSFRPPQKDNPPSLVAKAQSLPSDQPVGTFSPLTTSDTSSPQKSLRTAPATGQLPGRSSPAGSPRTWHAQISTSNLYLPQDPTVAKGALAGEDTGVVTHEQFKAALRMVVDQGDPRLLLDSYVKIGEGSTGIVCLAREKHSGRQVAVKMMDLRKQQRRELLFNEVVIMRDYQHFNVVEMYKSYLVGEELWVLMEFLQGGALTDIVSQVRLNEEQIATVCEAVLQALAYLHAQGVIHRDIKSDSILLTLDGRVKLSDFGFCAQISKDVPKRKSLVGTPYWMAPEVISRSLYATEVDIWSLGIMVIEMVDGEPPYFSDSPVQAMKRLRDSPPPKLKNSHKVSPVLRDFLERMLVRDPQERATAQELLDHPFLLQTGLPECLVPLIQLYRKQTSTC

fold of LRRK2 bound, against 2xMyc‐14‐3‐3 zeta: 3.5 fold
Substance: 3xFlag‐LRRK2 wild type, Q5S007 1-2527
